Consider five molecules from patent US12145987B2, “Method for depleting cytotoxic T cells using an anti-LAG-3 antibody composition” (Daiichi Sankyo Company, Limited, priority 2017, dated 2024).

The target in test [1] is T1, human PHA blasts expressing LAG-3 (Homo sapiens, UniProt P18627).
T1 construct: To human PBMCs stimulated with 2 μg/mL of PHA (manufactured by Sigma-Aldrich) for three days; endogenous in cells; host or cells: human PBMCs stimulated with PHA for three days (PHA blasts)
T1 sequence (P18627 23-525): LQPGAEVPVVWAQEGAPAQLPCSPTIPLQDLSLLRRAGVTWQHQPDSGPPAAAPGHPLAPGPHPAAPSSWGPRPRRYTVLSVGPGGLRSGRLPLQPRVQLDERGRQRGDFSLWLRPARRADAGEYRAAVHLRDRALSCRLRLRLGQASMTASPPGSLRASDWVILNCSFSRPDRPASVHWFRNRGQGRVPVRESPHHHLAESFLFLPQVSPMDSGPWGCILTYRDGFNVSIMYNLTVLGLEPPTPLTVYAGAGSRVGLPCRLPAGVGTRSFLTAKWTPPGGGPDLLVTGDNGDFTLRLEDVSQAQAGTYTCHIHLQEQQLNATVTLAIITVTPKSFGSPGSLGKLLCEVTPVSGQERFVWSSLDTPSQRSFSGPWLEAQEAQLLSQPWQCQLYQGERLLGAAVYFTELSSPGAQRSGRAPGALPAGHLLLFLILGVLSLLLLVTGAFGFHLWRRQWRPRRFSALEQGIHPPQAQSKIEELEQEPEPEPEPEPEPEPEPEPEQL
Nature of the test: Binding activity to activated human T cells (PHA blasts) by flow cytometry. As to conditions: mean fluorescence intensity. On the procedure:
It was further confirmed by flow cytometry that the antibody produced by the hybridomas determined to be positive by the Cell-ELISA in Example 1)-3 binds to PHA (phytohemagglutinin) activated human T cells (PHA blasts), a more physiologically relevant cell type expressing LAG-3. To human PBMCs stimulated with 2 μg/mL of PHA (manufactured by Sigma-Aldrich) for three days, was added a hybridoma culture supernatant for suspension, followed by reaction at 4° C. for 30 minutes. After washing with a FACS buffer (PBS, 0.1% BSA, and 0.1% sodium azide), a secondary antibody such as an Anti-Rat IgG PE conjugate (manufactured by Jackson ImmunoResearch Laboratories, Inc.) diluted 200-fold with a FACS buffer comprising a LIVE/DEAD Fixable Dead Cell Stain Kit-near-IR fluorescent reactive dye (manufactured by Invitrogen Corp.) was added thereto for suspension, followed by standing at 4° C. for 30 minutes. After washing with a FACS buffer, the cells were resuspended in PBS containing 1 to 2% paraformaldehyde, followed by detection using a flow cytometer (CantoII: manufactured by Becton, Dickinson and Company or FC500: manufactured by Beckman Coulter Inc.). The data was analyzed using FlowJo (manufactured by Tree Star Inc). After removal of the LIVE/DEAD Fixable Dead Cell Stain Kit-near-IR fluorescent reactive dye-positive dead cells by gating, a histogram of the fluorescence intensity of the living cells was plotted.
The binding activity of the rat anti-human LAG-3 antibodies rLA204, rLA212, rLA225, rLA869, and rLA1264 purified by the method described in Example 1)-7 to activated human T cells was investigated.

The target of test [2] is T2, binding of LAG-3 to MHC class II molecules (293T-hLAG-3 cells / Raji cells) (Homo sapiens, UniProt P18627).
T2 construct: expressed in transfected cells; host or cells: 293T cells, transient transfection (Lipofectamine 2000)
T2 sequence (P18627 23-525): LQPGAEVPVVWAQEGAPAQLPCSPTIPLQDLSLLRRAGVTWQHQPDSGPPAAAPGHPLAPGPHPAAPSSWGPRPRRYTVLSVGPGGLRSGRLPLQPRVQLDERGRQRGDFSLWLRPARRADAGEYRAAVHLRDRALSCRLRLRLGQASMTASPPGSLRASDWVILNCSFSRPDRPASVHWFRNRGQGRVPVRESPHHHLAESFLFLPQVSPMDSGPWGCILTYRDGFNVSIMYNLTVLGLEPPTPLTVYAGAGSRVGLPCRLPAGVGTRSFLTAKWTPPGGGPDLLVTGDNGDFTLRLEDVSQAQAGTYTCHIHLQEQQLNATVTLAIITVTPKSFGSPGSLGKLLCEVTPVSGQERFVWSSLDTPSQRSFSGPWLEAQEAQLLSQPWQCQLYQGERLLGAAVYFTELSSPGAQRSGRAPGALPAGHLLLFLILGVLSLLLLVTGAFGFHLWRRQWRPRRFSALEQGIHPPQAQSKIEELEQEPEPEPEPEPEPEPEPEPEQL
Nature of the test: 293T-hLAG-3/Raji cell adhesion test. Type of test: cell-based. The settings on record: 10 μg/mL. The source says: In the LAG-3/MHC class II binding test according to Example 2)-3, the binding of the secondary antibody Anti-Human IgG PE conjugate for detecting binding of LAG-3-Fc to Raji cells could be inhibited by steric hindrance caused by binding of the anti-LAG-3 antibody to LAG-3-Fc, and thus the possibility of apparently showing a low fluorescence intensity cannot be completely excluded, despite the antibody not actually directly inhibiting the binding of LAG-3/MHC class II. Therefore, as an evaluation system without using a secondary antibody for detection, the following 293T-hLAG-3/Raji cell adhesion test system was constructed to evaluate the antibody.
Human LAG-3 expression plasmid pcDNA3.1/hLAG-3 was introduced into 293T cells using Lipofectamine 2000 (manufactured by Life Technologies Corp.), and the cells were inoculated onto a BioCoat poly-D-lysine-coated 96-well microplate (manufactured by Becton, Dickinson and Company) and cultured overnight. Meanwhile, Raji cells were labeled in a medium (RPMI1640 containing 10% FBS) with fluorescent dye BCECF-AM (manufactured by DOJINDO LABORATORIES, used at 10 μM) at 37° C. for 1 hour, followed by washing and then suspending in a medium to 1.6×10^6 cells/mL. After the transfection, the medium of the cells (293T-hLAG-3 cells) cultured overnight was removed, and 50 μL/well of a medium and 25 μL/well of an antibody solution were added thereto, followed by pre-incubation at 37° C. for 30 minutes. Thereafter, 25 μL/well of the BCECF-AM labeled Raji cells was added thereto, followed by centrifugation at 900 rpm for 30 seconds and incubation at 37° C. for 1 hour. After the reaction, the well was washed with medium two to three times to remove nonadherent cells, and the cells were lysed in 100 µL/well of a Tris buffer (25 mM, pH 8.0) containing 0.1% NP-40, to measure the fluorescence intensity of the well with a plate reader (ENVISION: manufactured by PerkinElmer Inc). The percentage of inhibition was calculated by the following formula.
Percentage of inhibition (%)=100−(A−B)/(C−B)×100 • A: Fluorescence intensity of each sample well • B: Fluorescence intensity of background
When adding the Raji cells and the antibody, a medium was added thereto. Except for that, the same operation as in the sample well was performed. • C: Fluorescence intensity of maximum binding
When adding the antibody, a medium was added thereto.

B1: rLA1264: anti-human LAG-3 rat monoclonal antibody; heavy chain variable region SEQ ID No: 18, light chain variable region SEQ ID No: 20 (antibody, listed as Rattus norvegicus, V domains shown)
VH: EVQLVESGGGLVQPGRSLKLSCAASGFTFSSYYMAWVRQAPTKGLEWVAYISNGGYSTYYRDSVKGRFTISRENAKSTLYLQMDSLRSEDTATYYCTITDHSGYRFTYWGQGTLVTVSS
VL: DIQMTQSPSLLSASVGDRVTLSCKASQSIYNSLAWYQQKLGEAPKLLIYDANSLQTGIPSRFSGSGSGTDFTLTISSLQPEDVATYFCQKYYSGNTFGAGTKLELKRA
With B1, in test [1], the “binding to activated human T cells (PHA blasts)” value (“binding” below) is recorded as “bound to PHA blasts prepared as in vitro activated human T cells in a concentration-dependent manner”. Also, in test [2], the “inhibitory activity in the 293T-hLAG-3/Raji cell adhesion test” value (“inhibitory activity” for short) is given as “almost no inhibitory activity”.

B2: rLA204: anti-human LAG-3 rat monoclonal antibody; heavy chain variable region SEQ ID No: 2, light chain variable region SEQ ID No: 4 (antibody, listed as Rattus norvegicus, V domains shown)
VH: EVELVESGGGLVQPGRSMKLSCAASGFTFRTYGMAWVRQAPTKGLEWVASISTGGGSTYYRDSVKGRFTISRDNAKSTLYLQMDSLRSEDTATYYCTTDLINYPGIGGFAFWGQGTLVTVSS
VL: NIVMTQSPKSMSISVGDRVTMNCKASQNVYNNIAWYQQKPGKSPKLLIYYASNRYTGVPDRFTGSGSGTDFTLTIHSVQAEDAAFYYCQRLYNSPPTFGGGTKLELKRA
For the molecule B2, the “binding” value in test [1] is recorded as “bound to PHA blasts prepared as in vitro activated human T cells in a concentration-dependent manner”. The “inhibitory activity” value in test [2] is “almost no inhibitory activity”.

B3: rLA225: anti-human LAG-3 rat monoclonal antibody; heavy chain variable region SEQ ID No: 10, light chain variable region SEQ ID No: 12 (antibody, listed as Rattus norvegicus, V domains shown)
VH: EVQLVESGGGLVQPGRSMKLSCVASGFTFSNYYMAWVRQAPTKGLEWVASISTGGGNTYYRDSVKGRFTISRDNAKSTLYLQMDSLRSEDTATYYCARPPYGYNYGWFTYWGQGTLVTVSS
VL: DIQMTQSPASLSASLGETVTIECRASEDIHNGLVWYQQKPGKSPQLLIYNANSMHTGVPSRFSGSGSGTQYSLKINSLQSEDVASYFCQQYYNYPRTFGGGTKLELKRA
Turning to B3, the “binding” value in test [1] is on record as “bound to PHA blasts prepared as in vitro activated human T cells in a concentration-dependent manner”. In test [2], the “inhibitory activity” value is given as “almost no inhibitory activity”.

B4: rLA869: anti-human LAG-3 rat monoclonal antibody; heavy chain variable region SEQ ID No: 14, light chain variable region SEQ ID No: 16 (antibody, listed as Rattus norvegicus, V domains shown)
VH: EVQLVESGGGLVQPGRSLKLSCAASGFTYRTYVMAWVRQGPTQGLEWVASISTGGVSTYYRDSVKGRFTISRDNAKNTLYLQMDSLRSEDTATYYCAKDMLNGYNSQGLFDYWGQGVMVTVSS
VL: NIVMTQSPKSMSISVGDRVTMNCRASQNVDNTIAWYQQKPGQSPKLLIYFASDRYTGVPDRFTGGGYGTDFTLTINSVQAEDAAFYYCQRIYNSPLTFGSGTKLEIRRA
Take B4: in test [1], the “binding” value is “bound to PHA blasts prepared as in vitro activated human T cells in a concentration-dependent manner”. The “inhibitory activity” value in test [2] is listed as “almost no inhibitory activity”.

B5: rLA212: anti-human LAG-3 rat monoclonal antibody; heavy chain variable region SEQ ID No: 6, light chain variable region SEQ ID No: 8 (antibody, listed as Rattus norvegicus, V domains shown)
VH: EVQLVESGGGLVQPGRSLKLSCAASGFTYRSYVMAWVRQAPTRGLEWVASISTGGGNTYYRDSVKGRFTISRDNAKNTLYLQMDSLRSEDTATYYCAEDMSNSGYGLFDYWGQGVMVTVSS
VL: NIVMTQSPKSMSISVGDRVTMNCKAGQNVDNNIAWYQKKPGQSPKLLIYYASNRNTGVPDRFTGGGYGTDFTLTINSVQAEDAAFYYCQRISNSPYTFGAGTELELKRA
For B5, in test [1], the “binding” value is “bound to PHA blasts prepared as in vitro activated human T cells in a concentration-dependent manner”. The “inhibitory activity” value in test [2] is “almost no inhibitory activity”.
